Results on one molecule are retold here after US20160039904A1 (UNITED STATES OF AMERICA AS REPRESENTED BY THE SECRETARY …, published 2016).

Some targets named below: HIV-1 gp140CH12.0544.2 (HIV-1); HIV-1 gp140Con-s (HIV-1); HIV-1 gp140MS (HIV-1).

B1: mD1.22 (receptor)
chain: not shown
Take B1: the Kd with HIV-1 gp140CH12.0544.2 stood at 0.17 nM; in the test with HIV-1 gp140Con-s it was 4.4 nM; with HIV-1 gp140MS, 0.19 nM.

What is called Kd is the free concentration of one partner at which half of the binding sites on the other are occupied at equilibrium, for simple one-to-one binding.
